Data reported in the supplement of paper PMC10126150.
± gives the standard deviation of the averaged measurements.

test system: ATP; test: switch fluorescence ratio, 500 uM ATP over buffer (Cy3 cluster intensity, sum of 5 cycles each) (fold (ratio)); higher = stronger signal-on switching upon ATP binding; sequences stand for … in TCGTCGGCAGCGTCAGATGTGTATAAGAGACAGTTTTTTTTTTTTTTTTTTTTTTTTT…TC; settings: aptamer strand: ATP DNA aptamer (quencher-CACCTGGGGGAGTATTGCGGAGGAAGG + anchor), 100 nM annealed; ATP concentration: 500 uM
Procedure, shortened: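 Cy3-labelled switching-strand clusters on a modified Illumina MiSeq flow-cell were annealed to 100 nM quencher-labelled ATP aptamer and imaged first in selection buffer, then after 15 min with 500 uM ATP at 22 °C. NaOH stripping and re-annealing separated each of five buffer/ATP cycles, and clusters outside 100-1000 RFU were excluded. The fluorescence ratio sums target-cycle Cy3 intensity over buffer-cycle Cy3 intensity per cluster and averages it per switch-domain sequence.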
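Also: ATP exposure 15 min at 22 °C before imaging.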

Sequence	switch fluorescence ratio
TTGATACAGG	1.29 ± 0.37
TTGATCAGGG	0.989 ± 0.042
TTGATCCAGT	0.997 ± 0.031
TTGATCTCGG	1.014 ± 0.0061
TTGATCTCTT	1.01 ± 0.026
TTGATGCGGT	1.04 ± 0.042
TTGATTAATT	0.9925 ± 0.0099
TTGATTAGTA	0.97 ± 0.028
TTGATTCATG	0.999 ± 0.04
TTGATTGACA	1 ± 0.043
TTGATTGATT	0.9916 ± 0.0055
TTGATTTAAT	1 ± 0.028
TTGATTTCAG	1.01 ± 0.013
TTGCAAATTT	1.79 ± 1.4
TTGCAATTCG	3.05 ± 2.5
TTGCAGATTT	0.985 ± 0.028
TTGCAGTAAT	1.87 ± 1.1
TTGCATGGGA	0.992 ± 0.018
TTGCCACTGA	1.02 ± 0.013
TTGCCATTGG	0.9905 ± 0.0062
TTGCCGTGTA	1.02 ± 0.031
TTGCCTTTCG	0.97 ± 0.041
TTGCGCCGC	1.138 ± 0.0037
TTGCGCGCTA	0.98 ± 0.054
TTGCGCTATT	1.07 ± 0.018
TTGCGGGGTT	1.14 ± 0.15

Sequence	switch fluorescence ratio
TTGCGGTATG	0.986 ± 0.022
TTGCGTGGTG	0.959 ± 0.077
TTGCGTTTGA	1.008 ± 0.005
TTGCGTTTTG	0.991 ± 0.057
TTGCTAAAGC	1.038 ± 0.0054
TTGCTACTGT	0.983 ± 0.018
TTGCTCCTGT	0.9965 ± 0.0019
TTGCTCTGGG	0.974 ± 0.019
TTGCTCTGTT	0.988 ± 0.023
TTGCTGGAAT	1.06 ± 0.095
TTGCTGTTTG	1 ± 0.034
TTGCTTAAAA	0.9852 ± 0.0095
TTGCTTACAT	1.02 ± 0.021
TTGCTTCCGT	1.1 ± 0.084
TTGCTTTGGG	1.01 ± 0.018
TTGCTTTGTT	1.0015 ± 0.001
TTGGAAAAT	0.967 ± 0.013
TTGGAAGGAC	1.03 ± 0.013
TTGGAAGGGA	1 ± 0.015
TTGGAATAGA	0.999 ± 0.05
TTGGAATGTT	0.952 ± 0.043
TTGGAATTTA	1 ± 0.016
TTGGACATGC	1.06 ± 0.14
TTGGAGACGG	1.023 ± 0.0012
TTGGAGAGAA	0.974 ± 0.022
TTGGAGGGAG	0.999 ± 0.043

Sequence	switch fluorescence ratio
TTGGAGGGGG	1.01 ± 0.039
TTGGAGGGTG	1.005 ± 0.01
TTGGAGGTTA	0.973 ± 0.017
TTGGAGTGTT	0.999 ± 0.026
TTGGAGTTTT	1.01 ± 0.038
TTGGATGAAA	1.03 ± 0.076
TTGGATGGAA	0.984 ± 0.023
TTGGATGTAC	1.14 ± 0.15
TTGGATGTTG	1.01 ± 0.034
TTGGATTTAG	0.998 ± 0.0044
TTGGATTTTC	1.04 ± 0.032
TTGGCACAGT	1.008 ± 0.0048
TTGGCAGGCC	1.017 ± 0.0074
TTGGCGGGGA	0.987 ± 0.054
TTGGCGGGTT	1.008 ± 0.0062
TTGGCTACAA	0.985 ± 0.037
TTGGCTGTGC	1.02 ± 0.019
TTGGCTTCAT	0.968 ± 0.016
TTGGCTTTAT	0.982 ± 0.04
TTGGGAAATG	0.985 ± 0.042
TTGGGAAGGG	1 ± 0.032
TTGGGAAGTT	1.02 ± 0.031
TTGGGAATCC	1.03 ± 0.12
TTGGGACAGC	1.003 ± 0.0014
